# Earlier results as cited in article PMC8622359.
# Like-named read-outs stand apart in the source and are kept apart here.
# Experiments:
# [1] = molecular target: AtRAD4 (Arabidopsis thaliana)
# [2] = molecular target: SAC3B (Arabidopsis thaliana) (UniProt F4JAU2); assay: given as Ka
# [3] = molecular target: SAC3B (Arabidopsis thaliana) (UniProt F4JAU2); assay: given as Ka; remark: listed apart in the source
# [4] = molecular target: AtRAD4 (Arabidopsis thaliana); remark: listed apart in the source
# [5] = molecular target: XPC (Homo sapiens); assay: given as Ka
# [6] = molecular target: XPC (Homo sapiens); assay: given as Ka; remark: listed apart in the source
# [7] = molecular target: PRP40A (Homo sapiens) (UniProt O75400); assay: given as Ka
# [8] = molecular target: HsSFI1 (R17) (Homo sapiens); assay: given as Ka
# [9] = molecular target: HsSFI1 (R17) (Homo sapiens); assay: given as Ka; remark: listed apart in the source
# [10] = molecular target: ScSFI1 (R19) (Saccharomyces cerevisiae); assay: given as Ka
# [11] = molecular target: SAC3 (Saccharomyces cerevisiae) (UniProt P46674); assay: given as Ka
# [12] = molecular target: ScSFI1 (R19) (Saccharomyces cerevisiae); assay: given as Ka; remark: listed apart in the source
# [13] = molecular target: ScSFI1 (R18) (Saccharomyces cerevisiae); assay: given as Ka
# [14] = molecular target: SAC3 (Saccharomyces cerevisiae); assay: given as Ka
# [15] = molecular target: KAR1 (Saccharomyces cerevisiae) (UniProt P11927); assay: given as Ka
# [16] = molecular target: SAC3 (Saccharomyces cerevisiae) (UniProt P46674)
# [17] = molecular target: ScSFI1 (R18) (Saccharomyces cerevisiae); assay: given as Ka; remark: listed apart in the source
# [18] = molecular target: SAC3 (Saccharomyces cerevisiae) (UniProt P46674); remark: listed apart in the source
# [19] = molecular target: KAR1 (Saccharomyces cerevisiae) (UniProt P11927); assay: given as Ka; remark: listed apart in the source
# [20] = molecular target: HsSFI1 (R18) (Homo sapiens); assay: given as Ka
# [21] = molecular target: Transducin β (Homo sapiens) (UniProt P62873); assay: given as Ka
# [22] = molecular target: HsSFI1 (R18) (Homo sapiens); assay: given as Ka; remark: listed apart in the source
# Chain of AtCEN2 (O23184 whole entry): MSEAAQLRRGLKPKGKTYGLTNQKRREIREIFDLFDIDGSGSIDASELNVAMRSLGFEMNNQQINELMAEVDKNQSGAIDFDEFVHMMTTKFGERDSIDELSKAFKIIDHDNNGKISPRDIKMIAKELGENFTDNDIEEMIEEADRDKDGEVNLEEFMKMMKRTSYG
# Chain of CDC31 (P06704 whole entry): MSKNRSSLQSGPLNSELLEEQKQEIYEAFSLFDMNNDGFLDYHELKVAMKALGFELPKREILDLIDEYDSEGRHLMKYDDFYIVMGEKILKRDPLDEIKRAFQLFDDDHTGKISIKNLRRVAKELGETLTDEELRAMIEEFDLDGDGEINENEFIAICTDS
# Chain of HsCEN1 (Q12798 whole entry): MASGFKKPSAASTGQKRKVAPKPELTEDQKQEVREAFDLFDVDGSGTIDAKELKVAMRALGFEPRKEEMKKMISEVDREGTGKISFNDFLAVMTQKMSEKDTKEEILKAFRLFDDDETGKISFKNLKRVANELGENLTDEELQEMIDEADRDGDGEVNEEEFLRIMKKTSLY
# Chain of HsCEN2 (P41208 2-172): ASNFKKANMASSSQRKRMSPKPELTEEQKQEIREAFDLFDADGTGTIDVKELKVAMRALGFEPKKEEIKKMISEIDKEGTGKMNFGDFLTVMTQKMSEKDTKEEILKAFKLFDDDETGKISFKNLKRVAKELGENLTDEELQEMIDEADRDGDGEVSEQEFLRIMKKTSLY
# Chain of HsSFI1 (R18) (Homo sapiens) (A8K8P3 670-692): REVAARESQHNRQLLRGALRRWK
# Chain of SAC3B (Arabidopsis thaliana) (F4JAU2 1050-1075): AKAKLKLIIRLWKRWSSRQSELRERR
# Chain of ScSFI1 (R19) (Saccharomyces cerevisiae) (Q12369 710-729): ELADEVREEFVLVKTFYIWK
# Chain of HsSFI1 (R17) (Homo sapiens) (A8K8P3 641-660): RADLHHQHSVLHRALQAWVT
# Chain of ScSFI1 (R18) (Saccharomyces cerevisiae) (Q12369 680-699): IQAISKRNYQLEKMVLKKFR
# Chain of PRP40A (Homo sapiens) (O75400 524-556): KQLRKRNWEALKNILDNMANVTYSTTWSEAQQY
substance,measurement,setting,value
AtCEN2 (from UniProt O23184),Kd,[1],54 nM
same,Kd,[2],2440 nM
same,Kd,[3],667 nM
same,Kd,[4],8000 nM
HsCEN2 (from UniProt P41208),Kd,[5],125 nM
same,Kd,[6],5.88 nM
same,Kd,[7],278 nM
same,Kd,[8],154 nM
same,Kd,[9],4000 nM
CDC31 (from UniProt P06704),Kd,[10],28.6 nM
same,Kd,[11],667 nM
same,Kd,[12],5260 nM
same,Kd,[13],100 nM
same,Kd,[14],45.5 nM
same,Kd,[15],43.5 nM
same,Kd,[16],45 nM
same,Kd,[17],4170 nM
same,Kd,[18],677 nM
same,Kd,[19],2270 nM
HsCEN1 (from UniProt Q12798),Kd,[20],333000 nM
same,Kd,[21],5880 nM
same,Kd,[22],831 nM
